Ends that are not written are not given here.
Target: T1, RXFP1 on RXFP1 CRE-Bla cells (human, UniProt Q9HBX9 1-757)
T1 sequence (looked up): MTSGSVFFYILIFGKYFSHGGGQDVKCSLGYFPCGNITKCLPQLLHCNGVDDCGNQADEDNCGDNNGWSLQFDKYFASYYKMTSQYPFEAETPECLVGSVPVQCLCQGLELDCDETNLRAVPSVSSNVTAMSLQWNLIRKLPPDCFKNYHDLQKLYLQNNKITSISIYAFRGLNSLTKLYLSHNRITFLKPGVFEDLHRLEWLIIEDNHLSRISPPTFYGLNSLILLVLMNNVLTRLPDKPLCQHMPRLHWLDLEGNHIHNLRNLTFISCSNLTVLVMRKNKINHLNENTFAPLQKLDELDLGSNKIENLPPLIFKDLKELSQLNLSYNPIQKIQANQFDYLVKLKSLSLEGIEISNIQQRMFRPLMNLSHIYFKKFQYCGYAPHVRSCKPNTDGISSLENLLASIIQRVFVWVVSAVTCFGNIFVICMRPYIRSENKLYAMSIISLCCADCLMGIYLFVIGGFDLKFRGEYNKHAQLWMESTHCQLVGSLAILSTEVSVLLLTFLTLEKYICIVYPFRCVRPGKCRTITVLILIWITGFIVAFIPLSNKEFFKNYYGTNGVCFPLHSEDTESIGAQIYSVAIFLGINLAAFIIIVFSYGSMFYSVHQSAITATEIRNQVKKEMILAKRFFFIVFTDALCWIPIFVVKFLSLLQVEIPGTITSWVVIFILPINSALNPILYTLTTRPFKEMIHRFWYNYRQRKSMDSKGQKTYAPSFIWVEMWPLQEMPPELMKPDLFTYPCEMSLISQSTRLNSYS
Assay: cell-based or functional assay

B1: relaxin-H2 protein (R&D Systems) (ligand)
chain 1: QLYSALANKCCHVGCTKRSLARFC
chain 2: DSWMEEVIKLCGRELVRAQIAICGMSTWS
modifications: disulfide (positions not given here); ends not checked; also: three disulfides: two between A and B chains, one within A chain, pairings not given here
In the case of B1, the “EC50, in vitro FRET assay, RXFP1 CRE-Bla cells” value is reported as 4.9 nM.

— patent US20180298051A1 (Scripps Research, published 2018)
